Source: paper PMC6239178, “The binding of Class II sRNA MgrR to two different sites on matchmaker protein Hfq enables efficient competition for Hfq and annealing to regulated mRNAs”
Substitutions are numbered along the chain they refer to.

Key:
Hfq wt [1] = target: T1, Hfq wt (Escherichia coli, UniProt P0A6X3 1-102); experiment: EMSA; ternary complex with MgrR, annealing not markedly affected; HBB buffer (composition not in material); competition and dissociation at RT; Kd gelshift 0.1 nM 32P-MgrR, 2 h RT, 5% native gel in TBM (89 mM Tris, 89 mM borat); conditions: protein: recombinant; pET15b); chain copies: 6
Hfq wt [2] = target: T1, Hfq wt; experiment: EMSA; ternary complex with MgrR, unaffected; HBB buffer (composition not in material); competition and dissociation at RT; Kd gelshift 0.1 nM 32P-MgrR, 2 h RT, 5% native gel in TBM (89 mM Tris, 89 mM borat); conditions: protein: recombinant; pET15b); chain copies: 6
Hfq wt [3] = target: T1, Hfq wt; experiment: filter binding; 32P-A27 complex displaced by MgrR; HBB buffer (composition not in material); competition and dissociation at RT; Kd gelshift 0.1 nM 32P-MgrR, 2 h RT, 5% native gel in TBM (89 mM Tris, 89 mM borat); conditions: protein: recombinant; pET15b); chain copies: 6; label: 32P or unlabeled; single-stranded
Hfq wt [4] = target: T1, Hfq wt; experiment: filter binding; 32P-U18 complex displaced by MgrR; HBB buffer (composition not in material); competition and dissociation at RT; Kd gelshift 0.1 nM 32P-MgrR, 2 h RT, 5% native gel in TBM (89 mM Tris, 89 mM borat); conditions: protein: recombinant; pET15b); chain copies: 6; label: 32P or unlabeled; single-stranded

T1 sequence (P0A6X3 whole entry): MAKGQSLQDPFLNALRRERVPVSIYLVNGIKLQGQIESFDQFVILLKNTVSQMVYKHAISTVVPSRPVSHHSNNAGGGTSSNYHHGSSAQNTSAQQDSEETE

B1: eptB133_AU1_v1 (structured_RNA)
RNA: GCGCGUGUAGACCGCACUUAUCUGACUACCUCCGCACUUUUUCCCUGCCGGGCCUGAAAAGCCACUAAGCAGGGUGUUAUCACCUGUUUGUCCAGGGUUUGUUUGCAUGAGAUACAUCAAAUCGAUUACACAG
binding result (Hfq wt [1]): binds

B2: eptB133_AU1_v2 (structured_RNA)
RNA: B1 RNA with A11U, C12U, C13U, G14U, C15U, A16U, A20U
binding result (Hfq wt [1]): binds

B3: ygdQ145_AU3 (structured_RNA)
RNA: GCUUCAUUUUUUUGGCAGGGCUUUUUAGAUGUUAUUUGCAUGGAUAACCGAUCCUAACGCCUGGCUUGCGCUCGGUACGCUGACGCUGCUGGAGAUCGUUCUUGGGAUCGACAAUGUGCUGGUCCUCUCUCUGGUGGUGGCAAAG
binding result (Hfq wt [2]): binds

AAAAAAAAAAAAAAAAAAAAAAAAAAA (ssRNA) [A27]
binding result (Hfq wt [3]): binds

UUUUUUUUUUUUUUUUUU (ssRNA) [U18]
binding result (Hfq wt [4]): binds
